Assay results from the PETadex activity labels (doi:10.1101/2025.08.30.673199).
Positions count from the first letter of the chain named.

B1: unnamed (protein)
chain: MKAPLFKLAAFTLGVSLSSVALATNPGGGGAGSNPDTGTGFPGVSSFSADGSFATTSGSAGLSCTVFRPSTLGANGLKHPIIVWGNGTTASPSTYSGILEHWASHGFVVIAANTSNAGTGQDMLNCVDYLTTQNNRSTGTYANKLDLNRIGAAGHSQGGGGTIMAGQDYRIKVTAPFQPYTIGLGHNSSSQSNQNGPMFLMTGSADTIASPTLNALPVYNRANVPVFWGELSGASHFEPVGSAGDFRGPSTAWFRYHLMDDASAEDTFYGSNADLCTDNDWDVRRKGIN
B2: unnamed (protein)
chain: B1 chain with Y180W, A273C
B3: unnamed (protein)
chain: B1 chain with C126A, A273C
B4: unnamed (protein)
chain: B1 chain with F237I, A273C
B5: unnamed (protein)
chain: B1 chain with Q157M, A273C
B6: unnamed (protein)
chain: B1 chain with G183A, A273C
B7: unnamed (protein)
chain: B1 chain with Y180W, N214H, V218F, A273C
B8: unnamed (protein)
chain: B1 chain with H186A, A273C
B9: unnamed (protein)
chain: B1 chain with H236A, A273C
B10: unnamed (protein)
chain: B1 chain with Y180W, N214S, V218I, A273C
B11: unnamed (protein)
chain: B1 chain with G185A, A273C
B12: unnamed (protein)
chain: B1 chain with L184A, A273C

Substrate: PET
Assay: Proxy for plastic degradation [Released monomer concentration (HPLC/LC-MS) (TPA+MHET+BHET)]
Conditions: pH 9

| Protein | Proxy for plastic degradation |
| --- | --- |
| B1 | 10 µM |
| B2 | 195 µM |
| B3 | 250 µM |
| B4 | 1280 µM |
| B5 | 315 µM |
| B6 | 600 µM |
| B7 | 85 µM |
| B8 | 120 µM |
| B9 | 10 µM |
| B10 | 105 µM |
| B11 | 540 µM |
| B12 | 820 µM |
